Test [1] concerns the target bovine pancreatic RNase A, biotinylated (bovine) (UniProt P61823). Description: BLI. (In general: BLI is a label-free optical method that tracks binding on a fibre tip over time.)
In test [2] the target is CdiI^Ykris-His6, immunity protein of Yersinia kristensenii ATCC 33638 (Yersinia kristensenii ATCC 33638). Kind of test: BLI.

Results on two substances are retold here after article PMC5435912.

Sequence of UniProt P61823 (P61823 27-150): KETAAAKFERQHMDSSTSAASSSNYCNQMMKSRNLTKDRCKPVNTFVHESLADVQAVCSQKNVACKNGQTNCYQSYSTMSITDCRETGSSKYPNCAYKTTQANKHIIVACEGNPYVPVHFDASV

Usually Kd stands for the constant that tells how readily two partners part at equilibrium. A lower Kd goes with higher affinity. As for “CdiI^Ykris-His6, immunity protein of Yersinia kristensenii ATCC 33638 (natural protein)”, the Kd in test [1] was 1950 nM.
In test [2], “CdiA-CT^Ykris, C-terminal toxin region of CdiA from Yersinia kristensenii ATCC 33638 (domain or fragment)” gave a Kd of 40.9 nM.
